T1: purified recombinant IFNAR-1 extracellular fragment (human, UniProt P17181 28-436)
T1 construct: extracellular domain; also called soluble IFNAR-1; soluble IFNAR
T1 sequence (looked up): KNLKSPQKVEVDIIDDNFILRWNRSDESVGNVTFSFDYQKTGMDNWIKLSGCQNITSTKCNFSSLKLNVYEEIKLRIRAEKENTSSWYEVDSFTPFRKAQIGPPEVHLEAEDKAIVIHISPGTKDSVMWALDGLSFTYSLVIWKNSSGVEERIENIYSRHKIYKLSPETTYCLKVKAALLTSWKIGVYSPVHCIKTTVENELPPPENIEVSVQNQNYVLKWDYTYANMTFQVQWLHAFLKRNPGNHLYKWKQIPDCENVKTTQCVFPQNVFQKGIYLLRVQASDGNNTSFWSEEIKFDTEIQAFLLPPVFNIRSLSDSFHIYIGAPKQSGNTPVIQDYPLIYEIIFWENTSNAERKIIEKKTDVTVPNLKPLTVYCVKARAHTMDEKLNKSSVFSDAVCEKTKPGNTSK


How the values were obtained:
[1] = molecular target: T1, purified recombinant IFNAR-1 …; assay: Biacore, response on IFNAR-1 (flow cell 2) divided by response on anti-human IgG Fc (flow cell 4)
Excerpt: A series of antibodies were constructed with reduced numbers of potential T-cell epitopes. These included heavy chain variants M3-A and M3-B in which residues were changed in CDR regions and DI M3 in which framework residues were altered. De-immunized light chains were also constructed termed K1-C, K1-D, K1-E and DI K1. The antibodies were expressed and purified before analysis by Biacore. A Biacore chip was used with IFNAR-1 coated on Flow cell 2 at 690 RU and anti-human IgG Fc on flow cell 4 at 5000 RU. Binding of the antibody to IFNAR-1 relative to anti-human IgG Fc was determined by the ratio of response at flow cell 2 divided by flow cell 4 (Fc2/Fc4).

[2] = molecular target: T1, purified recombinant IFNAR-1 …; assay: Biacore, maximal association on IFNAR-1 relative to M3K1
Excerpt: Pools 4 and 11 were selected for further study and the individual antibodies in each pool were produced and expressed separately. The sequences of these individual antibodies were as shown in SEQ ID NO:12 of FIG. 1F and SEQ ID NO: 13 of FIG. 1G. The data is presented as maximal association relative to M3K1. […]

Binder | % activity relative to H3K1 [1] | Fc2/Fc4 [1] | % activity relative to M3K1 [2]
M3 heavy chain with K1-CD light chain (antibody, human IgG4, V domains shown, also called M3 K1-C/D) VH: EVQLLESGGGLVQPGGSLRLSCAFSGFTLSTSGMGIGWVRQAPGKGLEWVAHIWWDDDKYYNPSLKSRFTISRDTSKNTVYLQMNSLRAEDTAVYYCARNYYPYDAWFDYWGQGTLVTVS VL: DIQMTQSPSSLSASVGDRVTITCSASTSINSNHLNWYQQKPGKAPKLLIYRTSILASGVPSRFSGSGSGTSFTLTISSLQPEDFATYYCQQGSNIPFTFGQGTKVEIKR | 57% | 0.17 | 
M3 heavy chain with K1-CDE light chain (antibody, human IgG4, V domains shown, also called M3 K1-C/D/E) VH: EVQLLESGGGLVQPGGSLRLSCAFSGFTLSTSGMGIGWVRQAPGKGLEWVAHIWWDDDKYYNPSLKSRFTISRDTSKNTVYLQMNSLRAEDTAVYYCARNYYPYDAWFDYWGQGTLVTVS VL: DIQMTQSPSSLSASVGDRVTITCSASTSINSNHLNWYQQKPGKAPKLLIYRTSILASGVPSRFSGSGSGTSFTLTISSLQPEDFATYYCQQTSNIPFTFGQGTKVEIKR |  | -0.1 | 
M3 heavy chain with K1-D light chain (antibody, human IgG4, V domains shown, also called M3 K1-D) VH: EVQLLESGGGLVQPGGSLRLSCAFSGFTLSTSGMGIGWVRQAPGKGLEWVAHIWWDDDKYYNPSLKSRFTISRDTSKNTVYLQMNSLRAEDTAVYYCARNYYPYDAWFDYWGQGTLVTVS VL: DIQMTQSPSSLSASVGDRVTITCSASSSINSNHLNWYQQKPGKAPKLLIYRTSILASGVPSRFSGSGSGTSFTLTISSLQPEDFATYYCQQGSNIPFTFGQGTKVEIKR | 30% | 0.09 | 
M3 heavy chain with K1-DE light chain (antibody, human IgG4, V domains shown, also called M3 K1-D/E) VH: EVQLLESGGGLVQPGGSLRLSCAFSGFTLSTSGMGIGWVRQAPGKGLEWVAHIWWDDDKYYNPSLKSRFTISRDTSKNTVYLQMNSLRAEDTAVYYCARNYYPYDAWFDYWGQGTLVTVS VL: DIQMTQSPSSLSASVGDRVTITCSASSSINSNHLNWYQQKPGKAPKLLIYRTSILASGVPSRFSGSGSGTSFTLTISSLQPEDFATYYCQQTSNIPFTFGQGTKVEIKR |  | -0.1 | 
M3 heavy chain with K1-E light chain (antibody, human IgG4, V domains shown, also called M3 K1-E) VH: EVQLLESGGGLVQPGGSLRLSCAFSGFTLSTSGMGIGWVRQAPGKGLEWVAHIWWDDDKYYNPSLKSRFTISRDTSKNTVYLQMNSLRAEDTAVYYCARNYYPYDAWFDYWGQGTLVTVS VL: DIQMTQSPSSLSASVGDRVTITCSASSSINSNHLHWYQQKPGKAPKLLIYRTSILASGVPSRFSGSGSGTSFTLTISSLQPEDFATYYCQQTSNIPFTFGQGTKVEIKR |  | -0.05 | 
M3-A heavy chain with K1 light chain (antibody, human IgG4, V domains shown, also called M3-A K1) VH: EVQLLESGGGLVQPGGSLRLSCAFSGFTLSTSGAGIGWVRQAPGKGLEWVAHIWWDDDKYYNPSLKSRFTISRDTSKNTVYLQMNSLRAEDTAVYYCARNYYPYDAWFDYWGQGTLVTVS VL: DIQMTQSPSSLSASVGDRVTITCSASSSINSNHLHWYQQKPGKAPKLLIYRTSILASGVPSRFSGSGSGTSFTLTISSLQPEDFATYYCQQGSNIPFTFGQGTKVEIKR | 17% | 0.05 | 
M3-AB heavy chain with K1 light chain (antibody, human IgG4, V domains shown, also called M3-A/B K1) VH: EVQLLESGGGLVQPGGSLRLSCAFSGFTLSTSGAGIGWVRQAPGKGLEWVAHIWWDDDKYYNPSLKARFTISRDTSKNTVYLQMNSLRAEDTAVYYCARNYYPYDAWFDYWGQGTLVTVS VL: DIQMTQSPSSLSASVGDRVTITCSASSSINSNHLHWYQQKPGKAPKLLIYRTSILASGVPSRFSGSGSGTSFTLTISSLQPEDFATYYCQQGSNIPFTFGQGTKVEIKR | 43% | 0.13 | 
M3-AB heavy chain with K1-CD light chain (antibody, human IgG4, V domains shown, also called M3-A/B K1-C/D) VH: EVQLLESGGGLVQPGGSLRLSCAFSGFTLSTSGAGIGWVRQAPGKGLEWVAHIWWDDDKYYNPSLKARFTISRDTSKNTVYLQMNSLRAEDTAVYYCARNYYPYDAWFDYWGQGTLVTVS VL: DIQMTQSPSSLSASVGDRVTITCSASTSINSNHLNWYQQKPGKAPKLLIYRTSILASGVPSRFSGSGSGTSFTLTISSLQPEDFATYYCQQGSNIPFTFGQGTKVEIKR | 23% | 0.07 | 
M3-4 (X = L) heavy chain with K1 light chain (antibody, V domains shown, the position is counted within CDR3, not on the entry; also called M3-4 L) VH: EVQLLESGGGLVQPGGSLRLSCAFSGFTLSTSGMGIGWVRQAPGKGLEWVAHIWWDDDKYYNPSLKSRFTISRDTSKNTVYLQMNSLRAEDTAVYYCARNYYLYDAWFDYWGQGTLVTVS VL: DIQMTQSPSSLSASVGDRVTITCSASSSINSNHLHWYQQKPGKAPKLLIYRTSILASGVPSRFSGSGSGTSFTLTISSLQPEDFATYYCQQGSNIPFTFGQGTKVEIK |  |  | 126%
M3-4 (X = A) heavy chain with K1 light chain (antibody, V domains shown, Position counted within VH CDR3; also called M3-4 A) VH: EVQLLESGGGLVQPGGSLRLSCAFSGFTLSTSGMGIGWVRQAPGKGLEWVAHIWWDDDKYYNPSLKSRFTISRDTSKNTVYLQMNSLRAEDTAVYYCARNYYAYDAWFDYWGQGTLVTVS VL: DIQMTQSPSSLSASVGDRVTITCSASSSINSNHLHWYQQKPGKAPKLLIYRTSILASGVPSRFSGSGSGTSFTLTISSLQPEDFATYYCQQGSNIPFTFGQGTKVEIK |  |  | 107%
M3-4 (X = C) heavy chain with K1 light chain (antibody, V domains shown, Position counted within VH CDR3; also called M3-4 C) VH: EVQLLESGGGLVQPGGSLRLSCAFSGFTLSTSGMGIGWVRQAPGKGLEWVAHIWWDDDKYYNPSLKSRFTISRDTSKNTVYLQMNSLRAEDTAVYYCARNYYCYDAWFDYWGQGTLVTVS VL: DIQMTQSPSSLSASVGDRVTITCSASSSINSNHLHWYQQKPGKAPKLLIYRTSILASGVPSRFSGSGSGTSFTLTISSLQPEDFATYYCQQGSNIPFTFGQGTKVEIK |  |  | 123%
M3-4 (X = D) heavy chain with K1 light chain (antibody, V domains shown, Position counted within VH CDR3; also called M3-4 D) VH: EVQLLESGGGLVQPGGSLRLSCAFSGFTLSTSGMGIGWVRQAPGKGLEWVAHIWWDDDKYYNPSLKSRFTISRDTSKNTVYLQMNSLRAEDTAVYYCARNYYDYDAWFDYWGQGTLVTVS VL: DIQMTQSPSSLSASVGDRVTITCSASSSINSNHLHWYQQKPGKAPKLLIYRTSILASGVPSRFSGSGSGTSFTLTISSLQPEDFATYYCQQGSNIPFTFGQGTKVEIK |  |  | 100%
M3-4 (X = E) heavy chain with K1 light chain (antibody, V domains shown, Position counted within VH CDR3; also called M3-4 E) VH: EVQLLESGGGLVQPGGSLRLSCAFSGFTLSTSGMGIGWVRQAPGKGLEWVAHIWWDDDKYYNPSLKSRFTISRDTSKNTVYLQMNSLRAEDTAVYYCARNYYEYDAWFDYWGQGTLVTVS VL: DIQMTQSPSSLSASVGDRVTITCSASSSINSNHLHWYQQKPGKAPKLLIYRTSILASGVPSRFSGSGSGTSFTLTISSLQPEDFATYYCQQGSNIPFTFGQGTKVEIK |  |  | 128%
M3-4 (X = G) heavy chain with K1 light chain (antibody, V domains shown, Position counted within VH CDR3; also called M3-4 G) VH: EVQLLESGGGLVQPGGSLRLSCAFSGFTLSTSGMGIGWVRQAPGKGLEWVAHIWWDDDKYYNPSLKSRFTISRDTSKNTVYLQMNSLRAEDTAVYYCARNYYGYDAWFDYWGQGTLVTVS VL: DIQMTQSPSSLSASVGDRVTITCSASSSINSNHLHWYQQKPGKAPKLLIYRTSILASGVPSRFSGSGSGTSFTLTISSLQPEDFATYYCQQGSNIPFTFGQGTKVEIK |  |  | 114%
M3-4 (X = H) heavy chain with K1 light chain (antibody, V domains shown, Position counted within VH CDR3; also called M3-4 H) VH: EVQLLESGGGLVQPGGSLRLSCAFSGFTLSTSGMGIGWVRQAPGKGLEWVAHIWWDDDKYYNPSLKSRFTISRDTSKNTVYLQMNSLRAEDTAVYYCARNYYHYDAWFDYWGQGTLVTVS VL: DIQMTQSPSSLSASVGDRVTITCSASSSINSNHLHWYQQKPGKAPKLLIYRTSILASGVPSRFSGSGSGTSFTLTISSLQPEDFATYYCQQGSNIPFTFGQGTKVEIK |  |  | 79%

From patent US20050208041A1 (Bristol-Myers Squibb, published 2005)
